Molecular target: T1, human MICA002 on cells (human)
T1 chain: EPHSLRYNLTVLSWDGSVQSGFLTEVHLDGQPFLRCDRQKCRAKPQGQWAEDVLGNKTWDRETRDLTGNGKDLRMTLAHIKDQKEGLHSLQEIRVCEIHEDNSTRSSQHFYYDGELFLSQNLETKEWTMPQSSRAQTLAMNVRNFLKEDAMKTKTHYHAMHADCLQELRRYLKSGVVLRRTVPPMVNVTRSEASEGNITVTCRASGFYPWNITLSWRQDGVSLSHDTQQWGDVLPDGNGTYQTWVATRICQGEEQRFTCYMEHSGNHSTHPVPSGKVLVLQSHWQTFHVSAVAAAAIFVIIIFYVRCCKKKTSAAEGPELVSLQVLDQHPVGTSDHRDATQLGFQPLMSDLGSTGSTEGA
Experiment: flow cytometry, CHO-MICA002 cells

B1: h36B3GA (antibody, V domains shown)
VH: QVQLVQSGAEVKKPGASVKVSCKASGYAFTKYNFYWVRQAPGQGLEWIGYIDPYFGGTVYNQKFKGKATLTVDKSTSTAYMELRSLRSDDTAVYYCATTDAYSLFTYWGQGTLVTVSS
VL: DIQMTQSPSSLSASVGDRVTITCRASQDISNYLNWYQQTPGKAVKLLIYYTSRLHSGVPSRFSGSGSGTDYTLTISSLQPEDIATYFCLQGNTLPFTFGQGTKLEIK
notes: humanized #36 variant; the text writes h36B3(GA); copies: 2 + 2
  EC50 (read off the curve): ~0.6 µg/mL
